The results in this text go back to patent US20090318535.

For the data set, the target named is human BimEL (Bcl-2-Interacting Mediator of cell death, Extra Long isoform).

B1: human RSK1 (p90rsk/MAPKAP kinase-1) (protein)
chain: MEQDPKPPRLRLWALIPWLPRKQRPRISQTSLPVPGPGSGPQRDSDEGVLKEISITHHVKAGSEKADPSHFELLKVLGQGSFGKVFLVRKVTRPDSGHLYAMKVLKKATLKVRDRVRTKMERDILADVNHPFVVKLHYAFQTEGKLYLILDFLRGGDLFTRLSKEVMFTEEDVKFYLAELALGLDHLHSLGIIYRDLKPENILLDEEGHIKLTDFGLSKEAIDHEKKAYSFCGTVEYMAPEVVNRQGHSHSADWWSYGVLMFEMLTGSLPFQGKDRKETMTLILKAKLGMPQFLSTEAQSLLRALFKRNPANRLGSGPDGAEEIKRHVFYSTIDWNKLYRREIKPPFKPAVAQPDDTFYFDTEFTSRTPKDSPGIPPSAGAHQLFRGFSFVATGLMEDDGKPRAPQAPLHSVVQQLHGKNLVFSDGYVVKETIGVGSYSECKRCVHKATNMEYAVKVIDKSKRDPSEEIEILLRYGQHPNIITLKDVYDDGKHVYLVTELMRGGELLDKILRQKFFSEREASFVLHTIGKTVEYLHSQGVVHRDLKPSNILYVDESGNPECLRICDFGFAKQLRAENGLLMTPCYTANFVAPEVLKRQGYDEGCDIWSLGILLYTMLAGYTPFANGPSDTPEEILTRIGSGKFTLSGGNWNTVSETAKDLVSKMLHVDPHQRLTAKQVLQHPWVTQKDKLPQSQLSHQDLQLVKGAMAATYSALNSSKPTPQLKPIESSILAQRRVRKLPSTTL
As to B1, the “in vitro kinase assay: phosphorylation of BimEL on serines 93/94/98” value was “RSK1 phosphorylates BimEL in vitro on serines 93/94/98 (the degron serines)”.
